Assay results reported in article PMC12036799 (Metabolism: clinical and experimental, 2025).
Several values for one entry are separate records, joined by “and”; a condition that tells them apart may be missing. Equal values may be shown once.

Biological target: the molecule itself
Assay: dimer-tetramer equilibrium assay

B1: recombinant ALDOB WT (aldolase B) (enzyme, UniProt Q91Y97 1-364, looked up)
chain: MAHRFPALTPEQKKELSEIAQRIVANGKGILAADESVGTMGNRLQRIKVENTEENRRQFRELLFSVDNSISQSIGGVILFHETLYQKDSQGNLFRNVLKEKGIVVGIKLDQGGAPLAGTNKETTIQGLDGLSERCAQYKKDGVDFGKWRAVLRIADQCPSSLAIQENANALARYASICQQNGLVPIVEPEVLPDGDHDLEHCQYVSEKVLAAVYKALNDHHVYLEGTLLKPNMVTAGHACTKKYTPEQVAMATVTALHRTVPAAVPGICFLSGGMSEEDATLNLNAINRCPLPRPWKLSFSYGRALQASALAAWGGKAANKKATQEAFMKRAMANCQAAQGQYVHTGSSGAAATQSLFTASYTY
Question: Which “stoichiometry N” value does the source give for B1 here?
Answer: Its value is 2 and 4.
